Test results from the supplement of paper PMC12042874.
± gives the uncertainty stated by the source.

Experiment: amyloid nucleation score (Sup35N fusion, yeast selection) (log enrichment); library NNK1; higher = more nucleation; inactive = no reads after selection
Method in brief: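 Peptides of 20 random codons, each fused to Sup35N, were expressed in psi-negative yeast. Cells were induced with 100 μM copper sulfate for 24 hours and grown 7 days at 30°C on medium lacking adenine and uracil, and plasmid inserts before and after selection were Illumina-sequenced. Nucleation scores are DiMSum log enrichments of output over input reads, centred on the mode score of non-aggregating sequences, and sequences under 100 input reads were excluded.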

| Substance | amyloid nucleation score |
| --- | --- |
| NSAILITNIECLYNIITLFT | 6.389 ± 0.048 |
| LMQVVGTVGGRQCTVGWFGV | -0.523 ± 0.66 |
| RWVTSLRPNLDLS | 0.869 ± 0.52 |
| SHTHEHKFSSSRCGELNSEK | -0.902 ± 0.38 |
| PYVEIAWS | -1.19 ± 0.85 |
| ALVTWWSYHSLMVSGCKVRS | -0.299 ± 0.59 |
| GPSRNGWFNATLGHTLLSNT | 0.638 ± 0.42 |
| DFIKTTQSFQYQRAD | -0.717 ± 0.26 |
| SHTAVFSRAAIEMCCRDWRA | 0.537 ± 0.47 |
| VLCVSRRSAIYTWGSSLYCD | -0.691 ± 1.4 |
| GWTCYLSVGRIRF | 1.94 ± 0.11 |
| QDWHDYLYGKFIGNNYGKYI | 1.44 ± 0.47 |
| HNCTTGVTFKSEIASILVQP | -0.261 ± 0.4 |
| PPLVHSAHYVMKILKSCN | -1.5 ± 2.7 |
| GQDAPEDAMSVRRILVSGLA | -0.109 ± 1.5 |
| SAIYRRWAHRAQSAWQVESR | 1.94 ± 0.7 |
| CSSHDQFSAR | -0.214 ± 0.77 |
| IMSCDERWN | 0.287 ± 0.23 |
| QDRYR | 0.156 ± 0.56 |
| CCGLSDLYDVAVERVGGLLN | -1.26 ± 1.1 |
| NLERKEVLSREGCICANFTR | -0.345 ± 0.45 |

| Substance | amyloid nucleation score |
| --- | --- |
| PMYWLPIFLS | inactive |
| QLSVVNFKEM | -0.219 ± 0.7 |
| KLSNEYW | -0.485 ± 0.36 |
| LMHASHFFVGKMFLL | 0.266 ± 0.28 |
| MHTEFFGGMAHTTLWDVMSP | -0.977 ± 0.77 |
| YYFKRNTCCAAVLKHPFPVS | 0.019 ± 0.99 |
| CIGTHRIRFNSLLYRDQPII | -0.15 ± 0.86 |
| SDFYLGSRVTCGLNLSMAMG | 0.686 ± 0.62 |
| KIMCELCNSVRNALWRTLRG | -0.01 ± 0.71 |
| LVKYKKV | -0.088 ± 0.43 |
| DGLSFLMEHLCVNTLCKGSR | -0.075 ± 0.34 |
| LGRLAVDHLVCRRYDSSLHN | 0.089 ± 1.1 |
| IWKKLITNWMAYLTLNNFAL | inactive |
| MFVSDQINYCMSTVAVH | 0.201 ± 0.27 |
| HWLRYGDRIHMDNYNTSFFV | 1.42 ± 0.12 |
| CFLSLVWQHGHWWEGLESRL | 0.714 ± 0.53 |
| SRGVAALYSSNI | -0.278 ± 0.35 |
| LGLPSVFRRHFAFMVRMLWY | 0.021 ± 0.75 |
| GGPDTMEMGSFGDARATDAG | 1.03 ± 0.93 |
| SRGSVCIAMHLAC | 0.001 ± 0.37 |
| PYLGHR | -1.55 ± 1.4 |

| Substance | amyloid nucleation score |
| --- | --- |
| VAEVKRFCELLLK | -0.29 ± 1.7 |
| LSIEQTLQEAGILDYPSRIT | -0.155 ± 0.35 |
| FHDLTQSCVCGSM | 0.717 ± 0.49 |
| FIRSRMVWLCLMLISTIERG | 0.835 ± 0.39 |
| LQCSCLTVWLQNRPDQLSPS | 0.1 ± 0.73 |
| YRLKRINCGHVGHYMEDIRR | -0.099 ± 0.29 |
| PYTWTTTVPSAPKGLF | 0.096 ± 0.48 |
| LRLLFLNNSATCLVTHVGNQ | 1.38 ± 0.74 |
| AVYGAECDCAWFTPYSVVAD | 0.19 ± 0.36 |
| NCTKSSWYGCYT | -0.287 ± 0.35 |
| YGGIVNDVFAGLQNIMGVAL | 0.334 ± 0.54 |
| MINHSEPQHCMYV | 0.466 ± 0.9 |
| MSFDGVEYRTCNVYVSVTWG | -0.133 ± 0.77 |
| FLNLAFAVSRLGLCMWYVAF | 0.319 ± 0.87 |
| LFCHPSFYINGMWSLGGSGG | -0.578 ± 0.66 |
| MYSISCIVNY | 2.56 ± 0.15 |
| SPGFYLHGYQQNQHP | 0.653 ± 0.68 |
| RWSRI | -0.253 ± 0.23 |
| KGRVKGSVASSLS | -0.309 ± 0.57 |
| DYLVQGLHILVKWGYDRTDG | -0.187 ± 0.5 |
| LALMEEPLVLDNGSLDTKLS | 0.579 ± 1.1 |
